Laboratory results taken from patent publication US20240360242A1 (KISOJI BIOTECHNOLOGY, published 2024).

T1: HEK-TROP2 Δ27-146 (human, UniProt P09758)
T1 construct: deletion of residues 27-146, transiently expressed on HEK cells
T1 sequence (membrane protein on transfected HEK cells, looked up): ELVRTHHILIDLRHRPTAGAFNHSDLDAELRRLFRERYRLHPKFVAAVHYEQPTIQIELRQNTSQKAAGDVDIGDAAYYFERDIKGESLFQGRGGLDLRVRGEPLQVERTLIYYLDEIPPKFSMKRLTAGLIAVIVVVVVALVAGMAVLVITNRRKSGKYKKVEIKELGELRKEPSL

T2: HEK-TROP2 Δ27-66 (human, UniProt P09758)
T2 construct: deletion of residues 27-66, transiently expressed on HEK cells
T2 sequence (membrane protein on transfected HEK cells, looked up): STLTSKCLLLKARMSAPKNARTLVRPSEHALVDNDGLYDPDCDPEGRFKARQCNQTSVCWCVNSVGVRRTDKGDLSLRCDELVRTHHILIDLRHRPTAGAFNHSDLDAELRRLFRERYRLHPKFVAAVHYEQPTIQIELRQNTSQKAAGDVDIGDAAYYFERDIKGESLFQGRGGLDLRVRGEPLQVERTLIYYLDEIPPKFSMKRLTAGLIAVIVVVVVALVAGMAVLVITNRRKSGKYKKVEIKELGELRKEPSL

T3: recombinant human TROP2 extracellular domain (aa 1-274) comprising His tag (human, UniProt P09758 27-274)
T3 construct: Used here for all assays on recombinant human TROP2 (ELISA, immunoblot, SPR, crystal), although only some of them name the catalogue number; also called human recombinant TROP2; recombinant human TROP2 protein; not shown: His tag
T3 sequence: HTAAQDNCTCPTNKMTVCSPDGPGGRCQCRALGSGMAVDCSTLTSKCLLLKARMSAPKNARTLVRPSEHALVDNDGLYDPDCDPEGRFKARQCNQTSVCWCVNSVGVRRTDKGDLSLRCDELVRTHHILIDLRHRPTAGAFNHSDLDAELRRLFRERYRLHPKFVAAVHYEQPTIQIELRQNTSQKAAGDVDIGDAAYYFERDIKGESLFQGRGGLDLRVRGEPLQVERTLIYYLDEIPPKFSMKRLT

B1: KD002 (antibody, human IgG1, V domains shown)
VH: QVQLQESGGGMVQVGGSLRLSCAASGFPFSSADMSWVRQAPGKGPEWVSYINADGSKTYYPDSVKGRFTISRDNAKNTLYLLMNNLKPEDTALYRCARAKLTDTHYVEDYWGQGTQVTVSS
notes: also called anti-TROP2 sdAb KD002
B2: KD003 (antibody, human IgG1, V domains shown)
VH: QVQLQESGGGMVQPGGSLRLSCAASGFTFSNYDMSWVRQAPGKGPEWVSYINAGGSNTDYPDSVKGRFTISRDNAKNMLYLLMNNLKPEDTALYRCARAKLTDTHYVEDYWGQGTQVTVSS
notes: also called anti-TROP2 sdAb KD003
B3: KD001 (antibody, human IgG1, V domains shown)
VH: QVQLQESGGGMVHPGGSLRLSCAASGFTFSGSDMSWVRQAPGKGPEWVSYITSGGTTYYPDSVKGRFTISRDNAKNTLYLQMNSLTPDDTALYRCAKARLTDSHYVEDAWGQGTQVTVSS
notes: also called anti-TROP2 sdAb KD001
B4: KD005 (antibody, human IgG1, V domains shown)
VH: QVQLQESGGGLVEAGGSLRLSCAASGFTFSGSDMSWVRQAPGKGPEWVSYITSGGTTYYPDSVKGRFTISRDNAKNTLYLQMNSLKPDDTALYRCAKSRLTDSHYVEDAWGQGTQVTVSS
notes: also called anti-TROP2 sdAb KD005
B5: KD004 (antibody, human IgG1, V domains shown)
VH: QVQLQESGGGLVQPGRSLRLSCAASGFTFSGSDMSWVRQAPGKGPEWVSYITGSGTTYYPDSVKGRFTTSRDNAKNMLYLQMNSLKPDDTALYRCAKARLTDSHYVEDAWGQGTQVTVSS
notes: also called anti-TROP2 sdAb KD004

Columns and labels:
[1] = molecular target: T1, HEK-TROP2 Δ27-146; assay: flow cytometry, 100 nM antibody, transiently transfected HEK cells, APC anti-human Fc
Procedure, shortened: (§1)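 HEK parental cells transiently transfected (lipofectamine) with human TROP2 truncation mutants, harvested 24 h later and Fc-blocked 10 min at RT. Anti-TROP2 sdAbs at 100 nM bound 30 min on ice, then detected with APC anti-human Fc (30 min) and 7-AAD added for viability.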

[2] = molecular target: T2, HEK-TROP2 Δ27-66; assay: as above
Procedure, shortened: as §1

[3] = molecular target: T3, recombinant human TROP2 extracellular …; assay: ELISA on coated recombinant TROP2 ECD, 1:5 dilutions from 1000 nM, RLU
Method: TROP2 full-length extracellular domain recombinant proteins including cynomolgus/Rhesus (FIG. 12A), human (FIG. 12B), mouse (FIG. 12C), and rat (FIG. 12D) were coated on 96-well ELISA plates at the concentration of 1 μg/mL. Plates were covered with adhesive plate cover and stored at 4° C. overnight. The next day, plates were washed 3× with washing buffer (PBS with 0.1% Tween™ 20). Plates were blocked with 2% fat-free BSA in washing buffer for 1 hour at 37° C. During the incubation time, the anti-TROP2 sdAbs were diluted in the blocking buffer to the indicated concentrations. In brief, the anti-TROP2 sdAbs starting concentration was 1000 nM and serial diluted 1 in 5 to 0.02048 pM. After blocking, the blocking buffer was removed from the wells and 100 μL of anti-TROP2 sdAbs dilutions were transferred to the corresponding wells. Plates were covered with adhesive plates cover and incubated at 37° C. for 1 hour. During the primary antibody incubation, the secondary antibody (goat anti-human IgG, HRP conjugated) was diluted 1 in 5000 with the blocking buffer. Plates were washed 3× with blocking buffer, followed by secondary antibody incubation for another 1 hour at 37° C. After the secondary antibody incubation, plates were washed 3× with washing buffer and added with 100 μL of ELISA chemiluminescent substrate (Thermofisher). The luminescence signal was detected by SpectraMax i3x at […].

[4] = molecular target: T3, recombinant human TROP2 extracellular …; assay: competitive ELISA on coated recombinant human TROP2, competitor KD002-His (14285.7 pM per text), anti-His-HRP
Method: The epitope characterization was assessed by competitive ELISA (FIG. 8 and FIG. 9). Microplates were coated with human recombinant TROP2 at 4° C. overnight. After washing, plates were blocked with blocking buffer (PBS+2% BSA), for 1 hour at room temperature. Meanwhile, the dilution for anti-TROP2 VHH sdAbs was prepared with blocking buffer making two different dilutions depending on the tag. For sdAbs with His tag, the antibody was diluted to 28571.4 pM. For sdAbs without tag, antibodies were serially diluted from 2857142.9 pM to 0.29 pM (8 dilutions, 10×). After that, equal volume of the his-tagged sdAbs and serial diluted non-tagged sdAbs were mixed, to make the final concentration of his-tagged sdAbs 14285.7 pM and non-tagged sdAbs from 1428571.4 pM to 0.14 pM. After washing two times, the mixed antibody contents were added into the wells and the plates were incubated for 2 hours at room temperature. The HRP-conjugated anti-6× His was diluted to 1:5000 and added to the wells after washing three times. Any unbound conjugate was removed by washing after 1 hour incubation at room temperature, and the colorimetric reaction was performed by adding the same volume of Supersignal ELISA Pico Luminol/Enhancer and SuperSignal ELISA Pico Stable Peroxide Solution and detected on SpectraMax i3x Microplate Reader. Positive and negative controls were included in each plate.

| Binder | binding result [1] | binding result [2] | EC50 (read off the curve) [3] | IC50 (read off the curve) [4] |
| --- | --- | --- | --- | --- |
| B1 | no binding (tested: 100 nM) | no binding (tested: 100 nM) | ~0.2 nM | ~60 nM |
| B2 | no binding (tested: 100 nM) | no binding (tested: 100 nM) | ~0.2 nM | ~40 nM |
| B3 | no binding (tested: 100 nM) | no binding (tested: 100 nM) | ~0.2 nM | ~40 nM |
| B4 | no binding (tested: 100 nM) | no binding (tested: 100 nM) | ~0.2 nM | ~40 nM |
| B5 | no binding (tested: 100 nM) | no binding (tested: 100 nM) | ~0.2 nM | ~40 nM |
